Assays:
[1] = system: hematopoietic stem cells in the blood; assay: Mobilization of hematopoietic stem cells by SP alone (HSC-CFU colony count of blood cells); format: in vivo; conditions: rabbits; for level of hematopoietic stem cells in blood on the basis of 1X on day 0: intravenous (ear vein) twice, SP 6.7 µg/kg, G-CSF 10 µg/kg
Experimental: In order to confirm the effect of the drug administered in a normal physiological state alone, the effect of SP was tested using a normal group without wounds. This is because, in the case of injured animals, there are many other factors secreted by the wounds, and, thus, it is difficult to differentiate such factors from the effect of the administered drug, and especially because both SP and G-CSF are endogenous substances in the body.
To confirm the effect of SP alone on mobilization of hematopoietic stem cell, five (5) rabbits were prepared for each group. SP (6.7 µg/kg, sigma Aldrich) was administered twice via Ear vein, and the levels of hematopoietic stem cells in the blood of the same animals for 3 days were compared.
After injection of the drug, 5 ml of blood was collected once a day, put into a 15 ml tube (Falcon), and diluted twice by adding PBS (Welgene). To isolate blood cells, each of 5 ml Ficoll-Paque (Amersham) was placed in a new tube, and diluted blood was placed on top of it. The tubes were carefully handled so as not to mix the Ficoll layer and blood layer, and, after the blood layers were completely put in the tubes, centrifugation (813 g, Megafuge 8R, Thermo Scientific) was performed for 20 minutes. After centrifugation, the layers were separated, resulting in a total of four layers. The uppermost layer was plasma, the second layer was the blood cell layer excluding erythrocytes, the third layer was Ficoll, and the bottom layer was the erythrocyte layer. Among them, only the blood cell layer was separated and put into a tube, and PBS was then added thereto to centrifuge same. 5×10^6 blood cells were placed in a 35 mm plate and cultured in HSC-CFU media (Hematopoietic stem cells-colony forming unit media, purchased from Miltenyi). While the cells were cultured in the initial state for 2 weeks without exchanging the media, the number of colonies was observed every day and finally counted.

[2] = system: immune cells in the blood; assay: Effect of SP on blood immune cells (CBC count, percentages in total leukocytes); conditions: rabbits, G-CSF 10 µg/kg intravenous twice; day 2
Experimental: To confirm the effect of SP on the percentage of immune cells in blood, five (5) rabbits were prepared for each group. After administering SP (6.7 µg/kg) via ear vein twice, the percentages of immune cells in the blood of the same animals were compared for 3 days. G-CSF (10 µg/kg, JW Pham) was used at a conventional clinical dose and treated with the same regimen as that of SP (i.e., intravenous administration). After the administration, 1 ml of the blood was collected at one-day intervals, transferred to a tube containing EDTA and analyzed by using a diagnostic device.

B1: G-CSF: recombinant granulocyte colony stimulating factor, a glycoprotein stimulating neutrophil progenitor cells and mature neutrophils (protein, UniProt P09919 31-207, looked up)
Granulocyte …: TPLGPASSLPQSFLLKCLEQVRKIQGDGAALQEKLVSECATYKLCHPEELVLLGHSLGIPWAPLSSCPSQALQLAGCLSQLHSGLFLYQGLLQALEGISPELGPTLDTLQLDVADFATTIWQQMEELGMAPALQPTQGAMPAFASAFQRRAGGVLVASHLQSFLEVSYRVLRHLAQP
level of hematopoietic stem cells in blood on the basis of 1X on day 0 ([1]; day 1): 2 X | level of hematopoietic stem cells in blood on the basis of 1X on day 0 ([1]; day 2): 2.5 X | level of hematopoietic stem cells in blood on the basis of 1X on day 0 ([1]; day 3): 0.6 X | effect on mobilization of hematopoietic stem cells (in words) ([1]; intravenous twice, followed for 3 days, FIG. 1): negligible effect on mobilization of hematopoietic stem cells | increase of the percentage of neutrophils in the blood [2]: about 65%

Source: patent US20230248799A1, “COMBINATION THERAPY OF SUBSTANCE-P FOR MOBILIZATION OF HEMATOPOIETIC STEM CELLS” (ELPHIS CELL THERAPEUTICS, priority 2020, published 2023)
